According to paper PMC12205980:

Target: GP55 (ORF55-encoded replicase of lactococcal phage 1706), full length (lactococcal phage 1706)
Test: SEC-MALS; Superdex 200 Increase 10/300 GL, 20 mM Tris-HCl pH 8.0, 100 mM NaCl, 1 mM TCEP, 0.5 ml/min; Wyatt Dawn Heleos II; self-association of the Ni-NTA-purified protein

## GP55 (ORF55-encoded replicase of lactococcal phage 1706), full length (enzyme)
  stoichiometry N: 2
